Source: paper PMC9482650, “Quantitative fragmentomics allow affinity mapping of interactomes” (Nature Communications, 2022)

T1: ARHGAP21, Q5T5U3
T1 sequence (Q5T5U3 45-169, limits assumed, looked up): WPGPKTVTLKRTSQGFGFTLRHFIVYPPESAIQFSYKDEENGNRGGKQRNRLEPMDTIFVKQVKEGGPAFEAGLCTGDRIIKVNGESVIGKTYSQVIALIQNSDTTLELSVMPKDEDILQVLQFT

T2: PCLO, Q9Y6V0
T2 sequence (Q9Y6V0 4491-4600, limits assumed, looked up): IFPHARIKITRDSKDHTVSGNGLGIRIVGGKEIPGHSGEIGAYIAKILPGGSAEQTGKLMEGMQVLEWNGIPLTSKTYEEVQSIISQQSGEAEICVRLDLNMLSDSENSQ

T3: MPP2, Q14168
T3 sequence (Q14168 180-250, limits assumed, looked up): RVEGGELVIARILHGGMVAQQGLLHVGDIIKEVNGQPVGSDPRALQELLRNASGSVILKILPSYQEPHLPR

T4: MPP7, Q5T2T1
T4 sequence (Q5T2T1 134-230, limits assumed, looked up): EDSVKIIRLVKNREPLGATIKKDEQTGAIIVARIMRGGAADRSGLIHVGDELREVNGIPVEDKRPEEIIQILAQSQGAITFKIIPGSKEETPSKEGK

T5: LNX2_3, Q8N448
T5 sequence (Q8N448 463-564, limits assumed, looked up): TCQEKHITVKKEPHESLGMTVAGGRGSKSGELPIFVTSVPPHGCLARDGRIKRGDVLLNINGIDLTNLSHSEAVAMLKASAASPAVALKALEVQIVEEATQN

T6: NHERF3_1, Q5T2W1
T6 sequence (Q5T2W1 4-100, limits assumed, looked up): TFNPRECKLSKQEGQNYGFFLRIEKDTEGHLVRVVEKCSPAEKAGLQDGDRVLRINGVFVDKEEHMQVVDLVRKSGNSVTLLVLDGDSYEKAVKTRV

T7: SNTG1, Q9NSN8
T7 sequence (Q9NSN8 52-150, limits assumed, looked up): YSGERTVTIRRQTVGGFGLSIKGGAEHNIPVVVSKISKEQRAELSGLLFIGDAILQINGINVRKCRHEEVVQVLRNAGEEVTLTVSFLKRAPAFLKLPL

T8: APBA2_2, Q99767
T8 sequence (Q99767 654-744, limits assumed, looked up): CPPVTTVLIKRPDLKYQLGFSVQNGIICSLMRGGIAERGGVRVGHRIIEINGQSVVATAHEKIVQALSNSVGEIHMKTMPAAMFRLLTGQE

T9: APBA1_2, Q02410
T9 sequence (Q02410 742-832, limits assumed, looked up): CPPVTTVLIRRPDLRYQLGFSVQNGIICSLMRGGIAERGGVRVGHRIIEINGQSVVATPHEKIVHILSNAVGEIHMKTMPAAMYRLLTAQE

T10: PDZRN3_1, Q9UPQ7
T10 sequence (Q9UPQ7 244-349, limits assumed, looked up): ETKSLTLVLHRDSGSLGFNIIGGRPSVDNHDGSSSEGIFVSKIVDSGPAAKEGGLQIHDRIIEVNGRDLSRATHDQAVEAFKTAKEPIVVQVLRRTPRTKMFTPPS


Key:
Test in all cases: holdup assay
Design in all cases: key: below the threshold = too weak to quantify, mostly under pKd 3.1 to 4
Settings in all cases: plain residues with an end cap or a label only (N-terminal biotin on a linker: ado-ado)
Inadl_10, Q8NI35 = molecular target: Inadl_10, Q8NI35
ARHGAP21, Q5T5U3 = molecular target: T1, ARHGAP21, Q5T5U3
IL16_1, Q14005 = molecular target: IL16_1, Q14005
PCLO, Q9Y6V0 = molecular target: T2, PCLO, Q9Y6V0
LNX1_3, Q8TBB1 = molecular target: LNX1_3, Q8TBB1
MAGI2_5, Q86UL8 = molecular target: MAGI2_5, Q86UL8
GRIP2_3, Q9C0E4 = molecular target: GRIP2_3, Q9C0E4
LNX1_1, Q8TBB1 = molecular target: LNX1_1, Q8TBB1
DLG1_1, Q12959 = molecular target: DLG1_1, Q12959
MPP2, Q14168 = molecular target: T3, MPP2, Q14168
MAGI2_4, Q86UL8 = molecular target: MAGI2_4, Q86UL8
FRMPD4, Q14CM0 = molecular target: FRMPD4, Q14CM0
GRIP2_5, Q9C0E4 = molecular target: GRIP2_5, Q9C0E4
IL16_3, Q14005 = molecular target: IL16_3, Q14005
MPP7, Q5T2T1 = molecular target: T4, MPP7, Q5T2T1
LNX2_3, Q8N448 = molecular target: T5, LNX2_3, Q8N448
NHERF3_1, Q5T2W1 = molecular target: T6, NHERF3_1, Q5T2W1
GRIP2_4, Q9C0E4 = molecular target: GRIP2_4, Q9C0E4
PTPN3, P26045 = molecular target: PTPN3, P26045
GRID2IP_2, A4D2P6 = molecular target: GRID2IP_2, A4D2P6
GRIP2_6, Q9C0E4 = molecular target: GRIP2_6, Q9C0E4
SNTG1, Q9NSN8 = molecular target: T7, SNTG1, Q9NSN8
APBA2_2, Q99767 = molecular target: T8, APBA2_2, Q99767
TJP1_3, Q07157 = molecular target: TJP1_3, Q07157
DLG4_2, P78352 = molecular target: DLG4_2, P78352
APBA1_2, Q02410 = molecular target: T9, APBA1_2, Q02410
SCRIB_3, Q14160 = molecular target: SCRIB_3, Q14160
PDZRN3_1, Q9UPQ7 = molecular target: T10, PDZRN3_1, Q9UPQ7

Chain of TJP1_3, Q07157 (Q07157 416-512): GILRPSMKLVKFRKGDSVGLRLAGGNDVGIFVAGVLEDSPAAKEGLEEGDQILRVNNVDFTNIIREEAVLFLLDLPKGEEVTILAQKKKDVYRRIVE
Chain of IL16_3, Q14005 (Q14005 1107-1207): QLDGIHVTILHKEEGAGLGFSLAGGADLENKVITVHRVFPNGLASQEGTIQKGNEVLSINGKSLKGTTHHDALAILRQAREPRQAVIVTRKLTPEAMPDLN
Chain of LNX1_3, Q8TBB1 (Q8TBB1 500-596): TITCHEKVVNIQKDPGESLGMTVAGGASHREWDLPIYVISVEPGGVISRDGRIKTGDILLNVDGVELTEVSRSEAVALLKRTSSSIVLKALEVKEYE
Chain of GRID2IP_2, A4D2P6 (A4D2P6 272-370): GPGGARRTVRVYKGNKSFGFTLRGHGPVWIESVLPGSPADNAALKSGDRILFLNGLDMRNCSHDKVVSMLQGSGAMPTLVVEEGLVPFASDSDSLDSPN
Chain of FRMPD4, Q14CM0 (Q14CM0 67-160): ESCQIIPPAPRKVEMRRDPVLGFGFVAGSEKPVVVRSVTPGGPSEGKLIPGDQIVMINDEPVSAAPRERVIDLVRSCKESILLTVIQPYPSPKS
Chain of PTPN3, P26045 (P26045 505-587): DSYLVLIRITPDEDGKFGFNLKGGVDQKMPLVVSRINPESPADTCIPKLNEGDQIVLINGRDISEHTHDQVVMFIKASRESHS
Chain of GRIP2_4, Q9C0E4 (Q9C0E4 446-548): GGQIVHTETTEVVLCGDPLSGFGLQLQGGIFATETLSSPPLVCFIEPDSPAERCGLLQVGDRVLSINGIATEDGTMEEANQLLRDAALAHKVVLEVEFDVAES
Chain of GRIP2_3, Q9C0E4 (Q9C0E4 238-339): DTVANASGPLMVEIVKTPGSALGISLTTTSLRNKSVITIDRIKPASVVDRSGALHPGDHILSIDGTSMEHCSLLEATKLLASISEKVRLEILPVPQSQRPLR
Chain of DLG4_2, P78352 (P78352 155-259): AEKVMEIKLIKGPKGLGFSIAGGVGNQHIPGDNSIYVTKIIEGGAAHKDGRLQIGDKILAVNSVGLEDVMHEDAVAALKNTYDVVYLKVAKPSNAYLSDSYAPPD
Chain of SCRIB_3, Q14160 (Q14160 999-1103): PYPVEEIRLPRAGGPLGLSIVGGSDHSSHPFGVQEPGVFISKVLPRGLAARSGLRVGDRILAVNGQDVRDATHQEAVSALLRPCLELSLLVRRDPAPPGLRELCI
Chain of GRIP2_6, Q9C0E4 (Q9C0E4 648-740): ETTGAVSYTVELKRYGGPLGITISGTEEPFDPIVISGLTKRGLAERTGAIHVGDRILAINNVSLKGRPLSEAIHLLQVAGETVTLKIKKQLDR
Chain of LNX1_1, Q8TBB1 (Q8TBB1 261-371): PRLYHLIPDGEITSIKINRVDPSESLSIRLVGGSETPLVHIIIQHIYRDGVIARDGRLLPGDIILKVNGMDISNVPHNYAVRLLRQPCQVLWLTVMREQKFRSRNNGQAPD
Chain of MAGI2_4, Q86UL8 (Q86UL8 772-865): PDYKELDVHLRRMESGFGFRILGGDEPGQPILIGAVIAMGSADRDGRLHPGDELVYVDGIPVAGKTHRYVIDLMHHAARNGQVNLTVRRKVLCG
Chain of GRIP2_5, Q9C0E4 (Q9C0E4 544-642): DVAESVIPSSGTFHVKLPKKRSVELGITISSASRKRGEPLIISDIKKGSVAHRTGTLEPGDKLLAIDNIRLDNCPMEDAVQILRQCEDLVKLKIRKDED
Chain of IL16_1, Q14005 (Q14005 210-306): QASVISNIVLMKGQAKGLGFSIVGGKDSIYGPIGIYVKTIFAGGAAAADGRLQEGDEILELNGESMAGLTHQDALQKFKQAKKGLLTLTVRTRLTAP
Chain of MAGI2_5, Q86UL8 (Q86UL8 915-1017): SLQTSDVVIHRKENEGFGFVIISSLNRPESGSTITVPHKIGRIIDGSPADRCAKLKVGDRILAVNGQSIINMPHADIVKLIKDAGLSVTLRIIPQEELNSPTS
Chain of Inadl_10, Q8NI35 (Q8NI35 1673-1763): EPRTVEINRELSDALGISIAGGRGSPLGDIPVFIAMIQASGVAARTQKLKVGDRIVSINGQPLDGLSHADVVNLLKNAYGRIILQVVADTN

Binder | pKd (Inadl_10, Q8NI35) | pKd (ARHGAP21, Q5T5U3) | pKd (IL16_1, Q14005) | pKd (PCLO, Q9Y6V0) | pKd (LNX1_3, Q8TBB1) | pKd (MAGI2_5, Q86UL8) | pKd (GRIP2_3, Q9C0E4) | pKd (LNX1_1, Q8TBB1) | pKd (DLG1_1, Q12959) | pKd (MPP2, Q14168) | pKd (MAGI2_4, Q86UL8) | pKd (FRMPD4, Q14CM0) | pKd (GRIP2_5, Q9C0E4) | pKd (IL16_3, Q14005) | pKd (MPP7, Q5T2T1) | pKd (LNX2_3, Q8N448) | pKd (NHERF3_1, Q5T2W1) | pKd (GRIP2_4, Q9C0E4) | pKd (PTPN3, P26045) | pKd (GRID2IP_2, A4D2P6) | further results
QLSFNTDTLC [ABCA2, Q9BZC7] | below the threshold | below the threshold | 3.58 | below the threshold | below the threshold | 3.73 | below the threshold | below the threshold | 3.87 | below the threshold | 4.17 | 4.03 | below the threshold | below the threshold | below the threshold | below the threshold | 4.07 | below the threshold | 4.09 | below the threshold | pKd (GRIP2_6, Q9C0E4): below the threshold; pKd (SNTG1, Q9NSN8): below the threshold; pKd (APBA2_2, Q99767): below the threshold; pKd (TJP1_3, Q07157): below the threshold; pKd (DLG4_2, P78352): 3.61; pKd (APBA1_2, Q02410): below the threshold; pKd (SCRIB_3, Q14160): below the threshold; pKd (PDZRN3_1, Q9UPQ7): below the threshold
EDLEDEWEVI [TECPR2, O15040] | below the threshold | below the threshold | below the threshold | below the threshold | below the threshold | below the threshold | below the threshold | below the threshold | below the threshold | below the threshold | below the threshold | below the threshold | below the threshold | below the threshold | below the threshold | below the threshold | below the threshold | below the threshold | below the threshold | below the threshold | pKd (GRIP2_6, Q9C0E4): below the threshold; pKd (SNTG1, Q9NSN8): below the threshold; pKd (APBA2_2, Q99767): below the threshold; pKd (TJP1_3, Q07157): below the threshold; pKd (DLG4_2, P78352): below the threshold; pKd (APBA1_2, Q02410): below the threshold; pKd (SCRIB_3, Q14160): 3.84; pKd (PDZRN3_1, Q9UPQ7): below the threshold
